# What was measured:
# E46 [1] = molecular target: T1, E46; assay: sandwich ELISA: antibody coated at 10 ug/ml, CHO supernatant with CTLA4-Ig mutant, AP-goat anti-human Fc
# T1 construct: one of 11 alanine mutants made by site-directed mutagenesis, used as CHO supernatant; also called CTLA4 point mutant E46; CTLA4-Ig E46A; not shown: human Ig Fc portion (with hinge or linker) of the CTLA4-Ig fusion
# human CTLA4-Ig [2] = molecular target: T2, human CTLA4-Ig (human, UniProt P16410 38-161); assay: calculated; method and form of CTLA4 not stated (Example 8, competition assays); murine antibody
# T2 construct: also called rhCTLA4IgG1Fc; not shown: immunoglobulin Fc part of the fusion; named IgG1Fc in rhCTLA4IgG1Fc and detected with anti-human Fc
# T2 sequence (P16410 other isoform, or with tags, fused parts or gaps limits assumed): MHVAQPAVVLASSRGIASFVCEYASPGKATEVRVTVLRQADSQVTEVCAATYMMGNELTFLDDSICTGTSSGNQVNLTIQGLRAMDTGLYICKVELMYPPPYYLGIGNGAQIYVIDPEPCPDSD
# human CTLA4-Ig [3] = molecular target: T2, human CTLA4-Ig; assay: ELISA on plate-coated human CTLA4-Ig (10 ug/ml); serial dilutions of antibody, AP-goat anti-mouse, ABTS, OD 405 nm
# Method: ELISA plates were incubated with 10 ug/ml human CTLA4-Ig overnight. Plates were washed with PBS/1% BSA and incubated with serial dilutions of primary antibody for 2 hrs at room temperature (RT). After washing, saturating concentrations of AP-conjugated goat anti-mouse antibody were added, and incubated for 1 hr at RT. Unbound goat antibodies were washed using PBS/1% BSA. The assay was developed using ABTS.
# human CTLA4-Ig [4] = molecular target: T2, human CTLA4-Ig; assay: inhibition ELISA on plate-coated human CTLA4-Ig (10 ug/ml); antibody titrated, then biotin-CD86-Ig at 0.66 ug/ml as the blocked ligand; neutravidin-AP, ABTS
# Method: ELISA were performed as described above with modifications. […] After washing, saturating concentrations of neutravidin-AP were added, and incubated for 1 hr at RT. Unbound neutravidin-AP was washed using PBS/1% BSA. The assay was developed using ABTS.
# R38 = molecular target: T3, R38; assay: sandwich ELISA: antibody coated at 10 ug/ml, CHO supernatant with about 0.5 ug/ml CTLA4-Ig mutant, AP-goat anti-human Fc; blanks on the sheet: Mock 0.174, DME 0.183
# T3 construct: one of 11 alanine mutants made by site-directed mutagenesis, used as CHO supernatant; also called CTLA4 point mutant R38; CTLA4-Ig R38A; not shown: human Ig Fc portion (with hinge or linker) of the CTLA4-Ig fusion
# E46 [5] = molecular target: T1, E46; assay: as above
# Method: Mutant proteins were transiently expressed on CHO cells and supernatants harvested at 48 hrs. Supernatants containing CTLA4 mutant molecules were quantitated and standardized by ELISA. […] After incubation for 2 hrs at RT, plates were washed and incubated for 1 hr with AP-conjugated goat anti-human Fc specific IgG. The assay was developed as described above.
# L61 = molecular target: T4, L61; assay: as above
# T4 construct: one of 11 alanine mutants made by site-directed mutagenesis, used as CHO supernatant; also called CTLA4 point mutant L61; CTLA4-Ig L61A; not shown: the human Ig (Fc) part of the CTLA4-Ig fusion and its junction
# Q82 = molecular target: T5, Q82; assay: as above
# T5 construct: one of 11 alanine mutants made by site-directed mutagenesis, used as CHO supernatant; also called CTLA4 point mutant Q82; CTLA4-Ig Q82A; not shown: human Ig Fc portion (with hinge or linker) of the CTLA4-Ig fusion
# R85 = molecular target: T6, R85; assay: as above
# T6 construct: one of 11 alanine mutants made by site-directed mutagenesis, used as CHO supernatant; also called CTLA4 point mutant R85; CTLA4-Ig R85A; not shown: human Ig Fc portion (with hinge or linker) of the CTLA4-Ig fusion
# I65 = molecular target: T7, I65; assay: as above
# T7 construct: one of 11 alanine mutants made by site-directed mutagenesis, used as CHO supernatant; also called CTLA4 point mutant I65; CTLA4-Ig I65A; not shown: the human Ig (Fc) part of the CTLA4-Ig fusion and its junction
# T67 = molecular target: T8, T67; assay: as above
# T8 construct: one of 11 alanine mutants made by site-directed mutagenesis, used as CHO supernatant; also called CTLA4 point mutant T67; CTLA4-Ig T67A; not shown: human Ig Fc portion (with hinge or linker) of the CTLA4-Ig fusion
# S64 = molecular target: T9, S64; assay: as above
# T9 construct: one of 11 alanine mutants made by site-directed mutagenesis, used as CHO supernatant; also called CTLA4 point mutant S64; CTLA4-Ig S64A; not shown: human Ig Fc portion (with hinge or linker) of the CTLA4-Ig fusion
# D63 = molecular target: T10, D63; assay: as above
# T10 construct: one of 11 alanine mutants made by site-directed mutagenesis, used as CHO supernatant; also called CTLA4 point mutant D63; CTLA4-Ig D63A; not shown: human Ig Fc portion (with hinge or linker) of the CTLA4-Ig fusion
# D62 = molecular target: T11, D62; assay: as above
# T11 construct: one of 11 alanine mutants made by site-directed mutagenesis, used as CHO supernatant; also called CTLA4 point mutant D62; CTLA4-Ig D62A; not shown: human Ig Fc portion (with hinge or linker) of the CTLA4-Ig fusion
# T45 = molecular target: T12, T45; assay: as above
# T12 construct: one of 11 alanine mutants made by site-directed mutagenesis, used as CHO supernatant; also called CTLA4 point mutant T45; CTLA4-Ig T45A; not shown: the human Ig (Fc) part of the CTLA4-Ig fusion and its junction
# human CTLA4-Ig [6] = molecular target: T2, human CTLA4-Ig; assay: competition ELISA on plate-coated human CTLA4-Ig (10 ug/ml); cold competitor titrated against biotinylated murine CTLA4-26B; streptavidin-peroxidase, ABTS, O.D. 415 nm
# Method: (§1) Plates were coated with human CTLA4-Ig (10 ug/ml) overnight, washed the next day and blocked with Superblock (Pierce) for 15 min at room temperature. Plates were washed three times with 1×PBS/0.1% Tween 20 and three times with 1×PBS.
# (§2) 100 ul of antibody mixtures was transferred to human CTLA4-Ig coated ELISA plate and rocked for 2 hours at room temperature. Plates were washed as described above and a secondary reagent (streptavidin peroxidase conjugate at 1:1000 dilution) in PBT buffer (1×PBS, 1% BSA, 0.1% Tween 20 was added. Plates were incubated for 1 hr at RT with shaking. Plates were washed as described above and developed for 10 minutes at room temperature with ABTS+H2O2 (100 ul/well) and the reaction was stopped with 2% oxalic acid (100 ul/well).
# human CTLA4-Ig [7] = molecular target: T2, human CTLA4-Ig; assay: competition ELISA on coated human CTLA4-Ig; reference murine CTLA4-26B
# Method: as §1, §2
# human CTLA4-Ig [8] = molecular target: T2, human CTLA4-Ig; assay: calculated; method and form of CTLA4 not stated (Example 8, competition assays); humanized, IgG1 isotype
# [9] = molecular target: CTLA4 on CTLA4-expressing CHO cells (human, UniProt P16410 36-223); assay: FACS competition on CTLA4-expressing CHO cells; competitor 125 ng FITC-labeled murine anti-CTLA4; unlabeled antibody 2000 ng to 100 ng
# Sequence of CTLA4 on CTLA4-expressing CHO cells (P16410 36-223 T147A limits assumed): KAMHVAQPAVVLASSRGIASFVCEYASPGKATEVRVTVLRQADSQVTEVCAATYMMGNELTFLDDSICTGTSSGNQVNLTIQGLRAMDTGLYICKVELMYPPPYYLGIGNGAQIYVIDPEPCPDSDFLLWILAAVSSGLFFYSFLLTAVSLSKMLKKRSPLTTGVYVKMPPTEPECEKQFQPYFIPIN
# Method: The starting concentration of the unlabeled competitor was 2000 ng and was diluted 2-fold serially to 100 ng.
# human CTLA4-Ig [10] = molecular target: T2, human CTLA4-Ig; assay: calculated; method and form of CTLA4 not stated (Example 8, competition assays); humanized, IgG2m3 isotype
# human CTLA4-Ig [11] = molecular target: T2, human CTLA4-Ig; assay: calculated; method and form of CTLA4 not stated (Example 8, competition assays); humanized, IgG4 isotype
binder,measurement,setting,value
"murine anti-human CTLA4 monoclonal antibody number 26 (antibody, V domains shown, Mouse IgG1; also called antibody 26; antibody 26B) VH: QVQLKESGPGLVAPSQSLSITCTVSGFSLTSYGVYWVRQPPGKGLEWLGVIWAGGTTNYNSALMSRLSISKDNSKSQVFLKMSSLQTDDTAMYYCARGPPHAMMKRGYAMDYWGQGTSVIVSS VL: QNVLTQSPAIMPASPGEKVTMTCSATSSITYMSWYQQKSGSSPRLLIYDTSNLASGVPVRFSGSGSGTSYSLTISRMEAEDAATYYCQQWSSYPLTFGAGTKLELK",binding result,E46 [1],no binding
same,Kd,human CTLA4-Ig [2],~1.7 nM
same,EC50 (read off the curve),human CTLA4-Ig [3],~0.05 µg/mL
same,IC50 (read off the curve),human CTLA4-Ig [4],~0.6 µg/mL
same,O.D. 450 nm,R38,0.636
same,O.D. 450 nm,E46 [5],0.16
same,O.D. 450 nm,L61,1.19
same,O.D. 450 nm,Q82,1.07
same,O.D. 450 nm,R85,0.976
same,O.D. 450 nm,I65,1.17
same,O.D. 450 nm,T67,0.944
same,O.D. 450 nm,S64,1.1
same,O.D. 450 nm,D63,0.979
same,O.D. 450 nm,D62,0.974
same,O.D. 450 nm,T45,0.948
same,IC50 (read off the curve),human CTLA4-Ig [6],~3 µg/mL
"humanized anti-CTLA4 antibody 26, IgG1 isotype (antibody, V domains shown, Human IgG1 heavy constant region (pVgamma1 vector) and human kappa constant region (pVkappa vector); also called hCTLA4-26B IgG1; humanized anti-CTLA4 IgG1) VH: QVQLQESGPGLVKPSQTLSLTCTVSGFSLTSYGVYWVRQPPGKGLEWLGVIWAGGTTNYNSALMSRLTISKDTSKNQVSLKLSSVTAADTAVYYCARGPPHAMMKRGYAMDYWGQGTLVTVSS VL: DIQMTQSPSSLSASVGDRVTITCSATSSITYMSWYQQKPGKAPKLLIYDTSNLASGVPSRFSGSGSGTDYTLTISSLQPEDFATYYCQQWSSYPLTFGGGTKVEIK",fold difference in affinity against the murine antibody,human CTLA4-Ig [7],≤ 10 fold
same,Kd,human CTLA4-Ig [8],~2 nM
same,IC50 (read off the curve),human CTLA4-Ig [6],~3 µg/mL
same,fold difference in binding affinity against the murine antibody,[9],≤ 3 fold
"humanized anti-CTLA4 antibody 26, IgG2m3 isotype (antibody, V domains shown, Human IgG2m3 (mutated IgG2) heavy constant region (pVgamma2m3 vector) and human kappa constant region; also called hCTLA4-26B IgG2m3; IgG2 m3 (2 mutated 3)) VH: QVQLQESGPGLVKPSQTLSLTCTVSGFSLTSYGVYWVRQPPGKGLEWLGVIWAGGTTNYNSALMSRLTISKDTSKNQVSLKLSSVTAADTAVYYCARGPPHAMMKRGYAMDYWGQGTLVTVSS VL: DIQMTQSPSSLSASVGDRVTITCSATSSITYMSWYQQKPGKAPKLLIYDTSNLASGVPSRFSGSGSGTDYTLTISSLQPEDFATYYCQQWSSYPLTFGGGTKVEIK",fold difference in affinity against the murine antibody,human CTLA4-Ig [7],≤ 10 fold
same,Kd,human CTLA4-Ig [10],~1.2 nM
same,IC50 (read off the curve),human CTLA4-Ig [6],~3 µg/mL
"humanized anti-CTLA4 antibody 26, IgG4 isotype (antibody, V domains shown, Human IgG4 heavy constant region (pVgamma4 vector) and human kappa constant region; also called hCTLA4-26B IgG4; PVkLC+PVg4HC) VH: QVQLQESGPGLVKPSQTLSLTCTVSGFSLTSYGVYWVRQPPGKGLEWLGVIWAGGTTNYNSALMSRLTISKDTSKNQVSLKLSSVTAADTAVYYCARGPPHAMMKRGYAMDYWGQGTLVTVSS VL: DIQMTQSPSSLSASVGDRVTITCSATSSITYMSWYQQKPGKAPKLLIYDTSNLASGVPSRFSGSGSGTDYTLTISSLQPEDFATYYCQQWSSYPLTFGGGTKVEIK",fold difference in affinity against the murine antibody,human CTLA4-Ig [7],≤ 10 fold
same,IC50 (read off the curve),human CTLA4-Ig [6],~3 µg/mL
same,Kd,human CTLA4-Ig [11],~1.1 nM

# — patent US20060165706A1 (GENETICS INSTITUTE, published 2006)
